In patent US12545899B2, “Luciferase enzymes for use with thermostable luciferins in bioluminescent assays” (Promega Corporation, priority 2018, dated 2026):
Changes are numbered by the printed parent chain. In names and notes the source's numbering stands.

Tests used:
[1] = Differential scanning fluorimetry (DSF) analysis; assay type: physicochemical; parameters: key to DSF Tm: melting temperature in °C (heated 30-95 °C at 1 °C/min); conditions: for DSF Tm: Table 7A
Description: (§1) To conduct the experiment, Sypro Orange (5000×) was diluted in water to 3× and combined with enzymes stored in 50 mM HEPES pH 7.5, 100 mM NaCl, 2 mM EDTA to a final concentration of 5×. Fluorescence was read at 60 second intervals as the reactions were heated at 1° C. per minute from 30-95° C. The change in fluorescence at each minute was calculated and plotted for each temperature in the range.
as §1, with “The luciferase enzyme variants generated were also evaluated using DSF analysis as shown in the representative results provided in Tables 7A and 7B above. To” for “To”, “the experiments,” for “the experiment,”, “in 20” for “in 50”, “7.5, 200” for “7.5, 100”, “NaCl, 1” for “NaCl, 2”

[2] = Luminescence of ATG-3707 variants (second round epPCR) with CS0333; assay type: biochemical; conditions: for Luminescence (RLU) BrightGlo / Normalized Luminescence BrightGlo: BrightGlo buffer; for Luminescence (RLU) BrightGlo / Luminescence (RLU) CellTiterGlo / Luminescence (RLU) Detection Reagent: 25° C., 3 min; for Normalized Luminescence BrightGlo / Normalized Luminescence CellTiterGlo / Normalized Luminescence Detection Reagent: normalized to ATG-3707; for Luminescence (RLU) CellTiterGlo / Normalized Luminescence CellTiterGlo: CellTiterGlo buffer; for Luminescence (RLU) Detection Reagent / Normalized Luminescence Detection Reagent: Detection Reagent buffer
Description: Reagent compositions included CS0333 diluted from 20 mM to 2 mM in reaction buffer with 2 mM ATP. […] Reactions were incubated at 25° C. for 3 min, and luminescence was read and then normalized to ATG-3707 activity tested in parallel.

[3] = Brightness of additional luciferase enzyme variants with CS0333; assay type: biochemical; conditions: for Fold-improvement over ATG3707, CS0333 BG / Fold-improvement over ATG3707, CS0333 DR: Table 7A; for Fold-improvement over ATG3707, CS0333 BG / Fold-improvement over ATG3707, CS0333 DR / luminescence CS0333 BG / luminescence CS0333 DR: 1 mM CS0333; for Fold-improvement over ATG3707, CS0333 BG / luminescence CS0333 BG / Fold improvement over ATG3707, CS0333 BG: Bright-Glo buffer; for Fold-improvement over ATG3707, CS0333 DR / luminescence CS0333 DR / Fold improvement over ATG3707, CS0333 DR: Detection Reagent buffer; for luminescence CS0333 BG / luminescence CS0333 DR / Fold improvement over ATG3707, CS0333 BG / Fold improvement over ATG3707, CS0333 DR: Table 7B
Description: (§2) Additional luciferase enzyme variants were generated and evaluated for their stability and activity. To evaluate the additional luciferase enzyme variants, 0.005 mg/ml luciferase enzyme variant was mixed with 1 mM ATP+1 mM substrate in either Bright-Glo™ (BG) or Detection Reagent (DR) buffers. […] (Table 7A is colored according to their relative luminescence values within each column across a red to green color spectrum with the lowest values colored red and the highest values colored green.)

[4] = Brightness of additional luciferase enzyme variants with CS0280; assay type: biochemical; conditions: for Fold-improvement over ATG3707, CS0280 BG / Fold-improvement over ATG3707, CS0280 DR: Table 7A; for Fold-improvement over ATG3707, CS0280 BG / Fold-improvement over ATG3707, CS0280 DR / luminescence CS0280 BG / luminescence CS0280 DR: 1 mM CS0280; for Fold-improvement over ATG3707, CS0280 BG / luminescence CS0280 BG / Fold improvement over ATG3707, CS0280 BG: Bright-Glo buffer; for Fold-improvement over ATG3707, CS0280 DR / luminescence CS0280 DR / Fold improvement over ATG3707, CS0280 DR: Detection Reagent buffer; for luminescence CS0280 BG / luminescence CS0280 DR / Fold improvement over ATG3707, CS0280 BG / Fold improvement over ATG3707, CS0280 DR: Table 7B
Description: as §2

B1: ATG-2877: SEQ ID NO: 5; H244W (protein)
chain: MADKNILYGPEPFYPLEDGTAGEQMFDALSRYAAIPGCIALTNAHTKENVLYEEFLKLSCRLAESFKKYGLKQNDTIAVCSENSLQFFLPVIASLYLGIIVAPVNDKYIERELIHSLGIVKPRIVFCSKNTFQKVLNVKSKLKSIETIIILDLNEDLGGYQCLNNFISQNSDSNLDVKKFKPYSFNRDDQVASIMFSSGTTGLPKGVMLTHKNIVARFSIAKDPTFGNAINPTSAILTVIPFHWGFGMMTTLGYFTCGFRVVLMHTFEEKLFLQSLQDYKVESTLLVPTLMAFLAKSALVEKYDLSHLKEIASGGAPLSKEIGEMVKKRFKLNFVRQGYGLTETTSAVLITPKGDAKPGSTGKIVPLHAVKVVDPTTGKILGPNEPGELYFKGPMIMKGYYNNEEATKAIIDNDGWLRSGDIAYYDNDGHFYIVDRLKSLIKYKGYQVAPAEIEGILLQHPYIVDAGVTGIPDEAAGELPAAGVVVQTGKYLNEQIVQDYVASQVSTAKWLRGGVKFLDEIPKGSTGKIDRKVLRQMLEKHTNGHHHHHHHH
transition melting temperature by DSF ([1]; compared with Ppe variant (SEQ ID NO: 1), FIG. 29): does not alter the transition melting temperature

B2: C2261E4: SEQ ID NO: 50; H244W+T344A+I396K+S193A+N228D+L305F+S306P+I109V+I230F (protein)
chain: B1 chain with I109V, S193A, N228D, I230F, L305F, S306P, T344A, I396K
Luminescence (RLU) BrightGlo [2]: 3249560 RLU | Normalized Luminescence BrightGlo [2]: 0.84 | Luminescence (RLU) CellTiterGlo [2]: 710098 RLU | Normalized Luminescence CellTiterGlo [2]: 1.10 | Luminescence (RLU) Detection Reagent [2]: 5375380 RLU | Normalized Luminescence Detection Reagent [2]: 1.04

B3: C2160C1: SEQ ID NO: 51; H244W+T344A+I396K+S193A+N228D+L305F+S306P+I109V+K121Q+F246Y+V261A (protein)
chain: B1 chain with I109V, K121Q, S193A, N228D, F246Y, V261A, L305F, S306P, T344A, I396K
Luminescence (RLU) BrightGlo [2]: 4459170 RLU | Normalized Luminescence BrightGlo [2]: 1.15 | Luminescence (RLU) CellTiterGlo [2]: 450262 RLU | Normalized Luminescence CellTiterGlo [2]: 0.70 | Luminescence (RLU) Detection Reagent [2]: 5002710 RLU | Normalized Luminescence Detection Reagent [2]: 0.97

B4: C7579E3: SEQ ID NO: 71; H244W+T344A+I396K+S193A+N228D+L305F+S306P+I109V+Y339M (protein)
chain: B1 chain with W244H, S306P
Fold-improvement over ATG3707, CS0333 BG [3]: 1.19 | Fold-improvement over ATG3707, CS0333 DR [3]: 1.96 | Fold-improvement over ATG3707, CS0280 BG [4]: 3.26 | Fold-improvement over ATG3707, CS0280 DR [4]: 3.63 | DSF Tm [1]: 55

B5: C7584F2: SEQ ID NO: 73; H244W+T344A+I396K+S193A+N228D+L305F+S306P+I109V+A344I (protein)
chain: B1 chain with W244H, T344A
Fold-improvement over ATG3707, CS0333 BG [3]: 2.35 | Fold-improvement over ATG3707, CS0333 DR [3]: 2.15 | Fold-improvement over ATG3707, CS0280 BG [4]: 2.78 | Fold-improvement over ATG3707, CS0280 DR [4]: 2.68 | DSF Tm [1]: 65

B6: C7612E10: SEQ ID NO: 68; H244W+T344A+I396K+S193A+N228D+L305F+S306P+I109V+V348I (protein)
chain: B1 chain with I109V, W244H
Fold-improvement over ATG3707, CS0333 BG [3]: 2.28 | Fold-improvement over ATG3707, CS0333 DR [3]: 2.27 | Fold-improvement over ATG3707, CS0280 BG [4]: 2.22 | Fold-improvement over ATG3707, CS0280 DR [4]: 2.02 | DSF Tm [1]: 63

B7: C7573G10: SEQ ID NO: 69; H244W+T344A+I396K+S193A+N228D+L305F+S306P+I109V+A316M (protein)
chain: B1 chain with S193A, W244H
Fold-improvement over ATG3707, CS0333 BG [3]: 2.81 | Fold-improvement over ATG3707, CS0333 DR [3]: 2.09 | Fold-improvement over ATG3707, CS0280 BG [4]: 14.12 | Fold-improvement over ATG3707, CS0280 DR [4]: 19.49 | DSF Tm [1]: 62

B8: C9644H7: SEQ ID NO: 97; H244W+T344A+I396K+S193A+N228D+L305F+S306P+I109V+C38R+A316W+T342S+V348I (protein)
chain: MADKNILYGPEPFYPLEDGTAGEQMFDALSRYAAIPGRIALTNAHTKENVLYEEFLKLSCRLAESFKKYGLKQNDTIAVCSENSLQFFLPVIASLYLGIIVAPVNDKYVERELIHSLGIVKPRIVFCSKNTFQKVLNVKSKLKSIETIIILDLNEDLGGYQCLNNFISQNSDSNLDVKKFKPYSFNRDDQVAAIMFSSGTTGLPNGVMLTHKNIVARFSIAKDPTFGDAINPTSAILTVIPFHWGFGMMTTLGYFTCGFRVVLMHTFEEKLFLQSLQDYKVESTLLVPTLMAFLAKSALVEKYDFPHLKEIASGGWPLSKEIGEMVKKRFKLNFVRQGYGLSEATSAILITPKGDAKPGSTGKIVPLHAVKVVDPTTGKILGPNEPGELYFKGPMKMKGYYNNEEATKAIIDNDGWLRSGDIAYYDNDGHFYIVDRLKSLIKYKGYQVAPAEIEGILLQHPYIVDAGVTGIPDEAAGELPAAGVVVQTGKYLNEQIVQDYVASQVSTAKWLRGGVKFLDEIPKGSTGKIDRKVLRQMLEKHTNGHHHHHHHH
luminescence CS0333 BG [3]: 15,784,700 | luminescence CS0333 DR [3]: 11,887,900 | Fold improvement over ATG3707, CS0333 BG [3]: 2.97 | Fold improvement over ATG3707, CS0333 DR [3]: 2.79 | luminescence CS0280 BG [4]: 1,642,120 | luminescence CS0280 DR [4]: 83,763 | Fold improvement over ATG3707, CS0280 BG [4]: 2.07 | Fold improvement over ATG3707, CS0280 DR [4]: 2.87 | DSF Tm (° C.) ([1]; Table 7B): 59 °C

B9: C9649G7: SEQ ID NO: 98; H244W+T344A+I396K+S193A+N228D+L305F+S306P+I109V+C38R+F55I+K121Q+A316W+Y339M+T344I+V348I (protein)
chain: B8 chain with F55I, N205K
luminescence CS0333 BG [3]: 13,322,000 | luminescence CS0333 DR [3]: 11,733,600 | Fold improvement over ATG3707, CS0333 BG [3]: 2.50 | Fold improvement over ATG3707, CS0333 DR [3]: 2.75 | luminescence CS0280 BG [4]: 7,501,350 | luminescence CS0280 DR [4]: 891,010 | Fold improvement over ATG3707, CS0280 BG [4]: 9.46 | Fold improvement over ATG3707, CS0280 DR [4]: 30.48 | DSF Tm (° C.) ([1]; Table 7B): 51 °C

B10: MK0136: SEQ ID NO: 104; H244W+S193A+N228D+L305F+S306P+I109V+C38R+F55I+Y108F+A316W+Y339M (protein)
chain: B8 chain with F55I, Y108F, N205K, Y339M, A344T, K396I
DSF Tm (° C.) ([1]; Table 9B): 71 °C

B11: MK0138: SEQ ID NO: 106; H244W+S193A+N228D+L305F+S306P+I109V+C38R+F55I+Y108F+A316W+Y339M+T3441+I396K (protein)
chain: B8 chain with F55I, K121Q, N205K, Y339M, S342T, A344I
DSF Tm (° C.) ([1]; Table 9B): 58 °C
